Tests used:
MAGI-1 PDZ1 domain [1] = target: T1, MAGI-1 PDZ1 domain (Rattus norvegicus (Rat), UniProt Q4L1J4 475-542, limits assumed); assay: ligand binding assay with purified MAGI-1 PDZ1
T1 construct: also called MAGI-PDZ-1

MAGI-1 PDZ3 domain [2] = target: T2, MAGI-1 PDZ3 domain (Rattus norvegicus (Rat), UniProt Q4L1J4 846-921, limits assumed); assay: ligand binding assay with purified MAGI-1 PDZ3
MAGI-1 PDZ3 domain [3] = target: T2, MAGI-1 PDZ3 domain; assay: ligand binding assay with purified PDZ domain
MAGI-1 PDZ1 domain [4] = target: T1, MAGI-1 PDZ1 domain; assay: ligand binding assay with purified PDZ domain

T1 sequence (Q4L1J4 475-542 limits assumed): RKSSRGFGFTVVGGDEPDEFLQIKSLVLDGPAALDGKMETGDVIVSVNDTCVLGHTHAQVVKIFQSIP
T2 sequence (Q4L1J4 846-921 limits assumed): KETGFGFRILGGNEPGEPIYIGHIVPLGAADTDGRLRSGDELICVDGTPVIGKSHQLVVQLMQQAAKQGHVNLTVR

GRKKRRQRRRPPQYKTDGITVV (also called TAT-PDZ3 peptide) [TAT-CAR^Ex8] showed a Kd (MAGI-1 PDZ1 domain [1]) of 23 nM and a Kd (MAGI-1 PDZ3 domain [2]) of 4 nM.

For GRKKRRQRRRPPQGGKKKETLV (also called TAT-PDZ1 peptide) [TAT-NET1], the binding result (MAGI-1 PDZ3 domain [3]) was “no binding” and the Kd (MAGI-1 PDZ1 domain [1]) was 28 nM.

For GRKKRRQRRRPPQSRTRRETQL (also called TAT-E6) [TAT-HPV E6], the binding result (MAGI-1 PDZ3 domain [3]) was “no binding” and the Kd (MAGI-1 PDZ1 domain [1]) was 15 nM.

For GRKKRRQRRRPPQAQSQAGSLV (also called TAT-PDZ3 peptide) [TAT-ESAM], the binding result (MAGI-1 PDZ1 domain [4]) was “no binding” and the Kd (MAGI-1 PDZ3 domain [2]) was 17 nM.

— patent publication US20180311369A1 (WRIGHT STATE UNIVERSITY, published 2018)
